Measurements reported in patent US20200179510A1, “LOW DENSITY LIPOPROTEIN RECEPTOR RELATED PROTEIN 5 INHIBITION SUPPRESSES TUMOR FORMATION” (YALE UNIVERSITY, priority 2017, published 2020).

How the values were obtained:
[1] = system: Wnt reporter gene TOPFlash; test: Wnt reporter gene (TOPFlash) assay in HEK293 cells; type: cell-based
Description: The Stat5 reporter assays were done in HEK293T cells for activated JAK1-induced activity or in those stably expressing JAK3, IL2/15Rβ and the common receptor γ subunit for IL15 induced activity. Cells were seeded at 8×10^4 cells per well in 48 well plate. The next day, cells were transfected by Lipofectamine 2000 (Invitrogen) with the pGL4.52-STAT5-Luciferase (Promega) and tagRFP (internal control) plasmids together with other plasmids expressing genes of interest. The total amount of plasmid was kept at 125 ng per well. The cells were added 24 hours after transfection with IL15/IL15Rα-Fc complex or mock. Six hours later, the cells were lysed and subjected to RFP fluorescence and luciferase luminescence measurement using an Envision Multilabel plate reader. The reporter gene activity is shown after being normalized against RFP readings. The LEF reporter assay was carried out in HEK293 cells that were transfected with the TOPFlash and GFP plasmids. The rest is the same as above. The reporter gene activity is shown after being normalized against GFP readings.
A functional mouse monoclonal anti-DKK2 antibody (5F8) was developed to specifically target and neutralize DKK2, but to not cross react with DKK-1. […]

[2] = system: tumor infiltrated leukocytes (CD8+ and NK1.1+ cells); test: Flow cytometry of tumor infiltrated leukocytes, MC38 tumors; type: in vivo, mouse; conditions: MC38, intratumoral DKK2 protein 600 ng/25 μl/tumor, three times every 8 hours
Description: Tumors were minced using scissors and scalpel blades and incubated with a digestion buffer [RPMI1640, 5% FBS, 1% PS, 25 mM HEPES and 300 U collagenase (Sigma C0130)] in a shaker for 2 h at 37° C. Disperse cells were filtered through a 70 μm cell strainer to eliminate clumps and debris. After centrifugation for 5 minutes (500×g) at 4° C., cell pellets were resuspended in the Red Blood Cell Lysis Buffer (Sigma R7757) and incubated at RT for 5 min to remove erythrocytes. Cells were pelleted again, resuspended and incubated in 0.05% Trypsin/EDTA at 37° C. for 5 min, followed by DNA digestion with the addition of Type I DNase (1 μg/ml final, Sigma D4263) for 5 min. Trypsin digestion was stopped by the addition of FBS to 5%, and cells were filtered again by a 40 μm cell strainer. Finally, the cells were pelleted again and resuspended in PBS at a concentration of […].
Cells in single cell suspension were fixed with 2% PFA (Santa-Cruz sc-281692). After washing with a Flow Cytometry Staining Buffer (eBioscience 00-4222-26), cells were stained with antibodies for cell surface markers for 1 hour on ice in the dark. For staining of intracellular proteins, the cells were washed and resuspended in the Permeabilization Buffer (BD 554723) and stained by antibodies in the Permeabilization Buffer for 1 hour on ice in the dark. […]

[3] = system: primary mouse NK cells with MC38 or YUMM1.7 cells; test: NK and tumor cell co-culture; type: cell-based; conditions: NK cells pre-treated with DKK2 8 nM 24 hrs, MC38 7:1
Description: Primary NK cells were isolated from the spleens as described above and cultured in the presence of 50 ng/ml recombinant murine IL-15 for 24 hours. Meanwhile, tumor cells were plated in the 96 well plate for overnight. NK cells were added into the tumor cells at 7:1 radio in the presence of the IgG3 antibody or anti-DKK2 5F8 for 9 hours at 37° C. For testing the effect of DKK2 in co-culture, isolated NK cells were cultured in the presence of 50 ng/ml recombinant murine IL-15 for 24 hours and then cultured in the presence or absence of DKK2 for another 24 hours before the NK cells were added to pre-seeded MC38 cells at 7:1 (NK:MC38) radio. The numbers of live tumor cells were determined by a Guava flow cytometer (EMDmillipore), whereas the cell apoptosis was assessed by flow cytometry using an Annexin V apoptosis detection kit (eBioscience, 88-8007).

primary mouse NK cells = test: IL-15-cultured primary mouse NK cells (flow cytometry, Western); type: cell-based
Description: Cells in single cell suspension were fixed with 2% PFA (Santa-Cruz sc-281692). After washing with a Flow Cytometry Staining Buffer (eBioscience 00-4222-26), cells were stained with antibodies for cell surface markers for 1 hour on ice in the dark. For staining of intracellular proteins, the cells were washed and resuspended in the Permeabilization Buffer (BD 554723) and stained by antibodies in the Permeabilization Buffer for 1 hour on ice in the dark. The cells were then pelleted and resuspended in the Flow Cytometry Staining Buffer for flow cytometry analysis.
Mouse primary NK and CD8+ T cells were isolated from the spleens by using the NK cell and CD8+ T cell isolation kits according to the manufacturer's instructions (Miltenyi Biotec #130-090-864 and #130-104-075), respectively. Primary NK cells were cultured in RPMI-1640 (Gibco, 11875-093) supplemented with 10% FBS, penicillin (100 U/ml), streptomycin (100 μg/ml), 2-mercaptoethanol (500 μM) and HEPES (10 mM) at 37° C. supplemented with 5% CO2 in the presence of recombinant murine IL-15 (50 ng/ml) for 24 hours before treatment with DKK2, CHIR99021, or WNT3A. CD8+ T cells were cultured in the same culture medium and condition as NK cells, but supplemented with IL-15 (200 ng/ml) and IL-15 Rα (1 μg/ml recombinant Mouse IL-15 receptor alpha Fc chimera Protein from R&D) for 96 hours before DKK2 treatment. Mouse primary intraepithelial lymphocytes (IELs) were prepared as described in (Little et al., The Journal of Immunology 175, 6713-6722 (2005) and Li et al. Infect Immun 80, 565-574 (2012)). In brief, the small intestine was everted, divided into four pieces, and washed twice in phosphate-buffered saline (PBS) containing 100 U/ml penicillin/streptomycin The specimens were then incubated with stirring at 37° C. in prewarmed Ca2+ and Mg2+-free Hanks' solution containing 100 U/ml penicillin-streptomycin, 5% fetal calf serum (FCS), 2 mM dithiothreitol (DTT), and 5 mM EDTA for 30 min, followed by vigorous shaking for 30 s. The supernatants were passed over two nylon wool columns to remove undigested tissue debris. The lymphocytes obtained were pooled and enriched on a discontinuous (40% and 70%) Percoll density gradient. Cells at the interface between the 40% and […], fractions (IELs) were collected for treatment with IL-15 (200 ng/ml) and DKK2 (200 ng/ml), followed by flow analysis.

human NK cells = test: Human NK cells cultured with IL-15; type: cell-based; conditions: human IL-15 50 ng/ml, 10 nM human DKK2, 24 hour
Description: Peripheral blood mononuclear cells from normal humans were purchased from ZenBio (SER-PBMC-200). Human NK cells were isolated from the PBMCs by using the human NK cell isolation kit according to the manufacturer's instruction (Miltenyi Biotec #130-092-657). Human NK cells were cultured in RPMI-1640 (Gibco, 11875-093) supplemented with 10% heat-inactivated FBS, penicillin (100 U/ml), streptomycin (100 μg/ml), 2-mercaptoethanol (500 μM) and HEPES (10 mM) at 37° C. supplemented with 5% CO2 in the presence of recombinant human IL-15 (50 ng/ml) before treatment with recombinant human DKK2 protein.

[4] = system: mouse primary CD8+ T cells; test: Mouse primary CD8+ T cells; type: cell-based
Description: (§1) Mouse primary NK and CD8+ T cells were isolated from the spleens by using the NK cell and CD8+ T cell isolation kits according to the manufacturer's instructions (Miltenyi Biotec #130-090-864 and #130-104-075), respectively. Primary NK cells were cultured in RPMI-1640 (Gibco, 11875-093) supplemented with 10% FBS, penicillin (100 U/ml), streptomycin (100 μg/ml), 2-mercaptoethanol (500 μM) and HEPES (10 mM) at 37° C. supplemented with 5% CO2 in the presence of recombinant murine IL-15 (50 ng/ml) for 24 hours before treatment with DKK2, CHIR99021, or WNT3A. CD8+ T cells were cultured in the same culture medium and condition as NK cells, but supplemented with IL-15 (200 ng/ml) and IL-15 Rα (1 μg/ml recombinant Mouse IL-15 receptor alpha Fc chimera Protein from R&D) for 96 hours before DKK2 treatment. Mouse primary intraepithelial lymphocytes (IELs) were prepared as described in (Little et al., The Journal of Immunology 175, 6713-6722 (2005) and Li et al. Infect Immun 80, 565-574 (2012)). […]

[5] = system: CD8+ intraepithelial cells from intestines; test: Mouse primary intraepithelial lymphocytes; type: cell-based; conditions: IL-15, 10 nM DKK2, 24 hour
Description: as §1

[6] = system: phospho-STAT5 nuclear localization; test: Immunocytostaining of phospho-STAT5 localization in NK cells; type: cell-based, mouse
Description: They were then placed on poly-lysine coated coverslips and incubated for 30 min at room temperature. Cells were fixed with 4% PFA for 10 min at room temperature and permeabilized with ice-cold methanol for 10 min at −20° C. After rinsed with PBS for 3 times, cells were blocked with a blocking buffer (5% normal donkey serum and 0.5% triton in PBS) for 1 hr at room temperature. Primary antibodies were then diluted in PBS with 0.5% BSA and applied to cells with overnight incubation at 4° C. Cells were rinsed with PBS for 3 times and incubated with diluted fluorochrome-conjugated secondary antibodies (in PBS with 1% BSA) for 1 hr at room temperature. Finally, cells were rinsed with PBS for 3 times and mounted with Prolong Gold Antifade solution (Thermo Fisher) for confocal microscopy.

LRP5 = target: T1, LRP5 (Homo sapiens, UniProt O75197); test: LRP internalization assay, LRP5; type: cell-based; conditions: HEK293 cells, DKK2 4 nM
T1 construct: endogenous in cells; host or cells: HEK293
Description: (§2) HEK293 cells were treated with mock or recombinant mouse DKK2 protein (4 nM) in culture medium for duration indicated. The cells were washed with pre-cold PBS and cell surface proteins were biotinylated with 0.5 mg/ml of EZ-Link Sulfo-NHS-SS-Biotin (Thermo Fisher, 21445) in a PBS buffer on ice for 30 min. The reaction was stopped by addition of PBS containing ice-cold 50 mM NH4Cl, followed by repeated washes with ice-cold PBS. The cells were then lysed with in a buffer containing 1.25% Triton X-100, 0.25% SDS, 50 mM Tris HCl PH8.0, 150 mM NaCl, 5 mM EDTA, 5 mg/ml iodoacetamide, 10 ug/ml PMSF, and the Roche proteinase inhibitor cocktail. After centrifugation, aliquots were taken as lysate controls, and the rest of supernatants were used in pull-down with NeutrAvidin beads (Thermo Fisher, 29200), followed by analysis by Western blotting.

LRP6 = target: T2, LRP6 (Homo sapiens, UniProt O75581); test: LRP internalization assay, LRP6; type: cell-based; conditions: HEK293 cells, DKK2 4 nM
T2 construct: endogenous in cells; host or cells: HEK293
Description: as §2

T2 sequence (O75581 20-1613): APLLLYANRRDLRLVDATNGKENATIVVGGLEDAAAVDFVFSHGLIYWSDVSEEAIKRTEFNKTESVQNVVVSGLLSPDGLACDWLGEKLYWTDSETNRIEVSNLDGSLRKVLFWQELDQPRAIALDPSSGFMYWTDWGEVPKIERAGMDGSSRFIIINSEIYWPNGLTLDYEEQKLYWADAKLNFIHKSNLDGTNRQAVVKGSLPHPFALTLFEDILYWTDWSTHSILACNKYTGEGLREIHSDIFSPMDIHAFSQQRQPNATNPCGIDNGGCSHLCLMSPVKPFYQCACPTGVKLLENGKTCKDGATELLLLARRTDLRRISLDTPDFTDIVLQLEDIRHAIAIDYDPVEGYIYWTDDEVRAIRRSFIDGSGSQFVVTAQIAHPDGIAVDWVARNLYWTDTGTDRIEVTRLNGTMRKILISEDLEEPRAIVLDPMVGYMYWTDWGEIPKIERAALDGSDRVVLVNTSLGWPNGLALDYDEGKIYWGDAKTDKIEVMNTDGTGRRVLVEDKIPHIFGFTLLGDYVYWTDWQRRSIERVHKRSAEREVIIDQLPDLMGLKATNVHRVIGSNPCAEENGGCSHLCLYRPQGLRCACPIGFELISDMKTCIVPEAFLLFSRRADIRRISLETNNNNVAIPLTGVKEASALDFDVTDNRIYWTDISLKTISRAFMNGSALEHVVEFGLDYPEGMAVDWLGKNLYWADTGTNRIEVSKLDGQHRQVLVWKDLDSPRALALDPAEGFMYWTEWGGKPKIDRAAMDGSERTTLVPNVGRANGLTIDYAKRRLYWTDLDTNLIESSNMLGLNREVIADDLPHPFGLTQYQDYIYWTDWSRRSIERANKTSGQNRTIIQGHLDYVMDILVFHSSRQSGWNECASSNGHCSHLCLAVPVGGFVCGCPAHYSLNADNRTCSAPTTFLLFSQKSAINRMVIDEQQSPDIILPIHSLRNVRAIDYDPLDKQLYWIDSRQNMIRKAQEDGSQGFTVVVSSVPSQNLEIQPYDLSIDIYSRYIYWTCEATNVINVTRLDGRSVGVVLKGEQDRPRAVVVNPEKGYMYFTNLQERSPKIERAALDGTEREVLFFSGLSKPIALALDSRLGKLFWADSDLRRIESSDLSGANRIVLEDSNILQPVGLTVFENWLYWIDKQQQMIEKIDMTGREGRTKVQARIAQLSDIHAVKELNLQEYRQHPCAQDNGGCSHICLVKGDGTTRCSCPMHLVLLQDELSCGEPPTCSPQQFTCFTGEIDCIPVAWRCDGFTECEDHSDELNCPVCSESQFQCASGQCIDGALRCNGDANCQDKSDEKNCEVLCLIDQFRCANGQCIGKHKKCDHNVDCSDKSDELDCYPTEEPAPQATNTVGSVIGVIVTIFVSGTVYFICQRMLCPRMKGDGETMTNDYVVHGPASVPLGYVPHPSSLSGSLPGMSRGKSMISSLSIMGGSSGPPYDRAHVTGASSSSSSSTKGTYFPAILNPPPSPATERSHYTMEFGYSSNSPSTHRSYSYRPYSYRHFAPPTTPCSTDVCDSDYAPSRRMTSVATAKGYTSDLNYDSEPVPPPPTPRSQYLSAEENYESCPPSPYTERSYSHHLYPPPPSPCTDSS
T1 sequence (O75197 32-1615): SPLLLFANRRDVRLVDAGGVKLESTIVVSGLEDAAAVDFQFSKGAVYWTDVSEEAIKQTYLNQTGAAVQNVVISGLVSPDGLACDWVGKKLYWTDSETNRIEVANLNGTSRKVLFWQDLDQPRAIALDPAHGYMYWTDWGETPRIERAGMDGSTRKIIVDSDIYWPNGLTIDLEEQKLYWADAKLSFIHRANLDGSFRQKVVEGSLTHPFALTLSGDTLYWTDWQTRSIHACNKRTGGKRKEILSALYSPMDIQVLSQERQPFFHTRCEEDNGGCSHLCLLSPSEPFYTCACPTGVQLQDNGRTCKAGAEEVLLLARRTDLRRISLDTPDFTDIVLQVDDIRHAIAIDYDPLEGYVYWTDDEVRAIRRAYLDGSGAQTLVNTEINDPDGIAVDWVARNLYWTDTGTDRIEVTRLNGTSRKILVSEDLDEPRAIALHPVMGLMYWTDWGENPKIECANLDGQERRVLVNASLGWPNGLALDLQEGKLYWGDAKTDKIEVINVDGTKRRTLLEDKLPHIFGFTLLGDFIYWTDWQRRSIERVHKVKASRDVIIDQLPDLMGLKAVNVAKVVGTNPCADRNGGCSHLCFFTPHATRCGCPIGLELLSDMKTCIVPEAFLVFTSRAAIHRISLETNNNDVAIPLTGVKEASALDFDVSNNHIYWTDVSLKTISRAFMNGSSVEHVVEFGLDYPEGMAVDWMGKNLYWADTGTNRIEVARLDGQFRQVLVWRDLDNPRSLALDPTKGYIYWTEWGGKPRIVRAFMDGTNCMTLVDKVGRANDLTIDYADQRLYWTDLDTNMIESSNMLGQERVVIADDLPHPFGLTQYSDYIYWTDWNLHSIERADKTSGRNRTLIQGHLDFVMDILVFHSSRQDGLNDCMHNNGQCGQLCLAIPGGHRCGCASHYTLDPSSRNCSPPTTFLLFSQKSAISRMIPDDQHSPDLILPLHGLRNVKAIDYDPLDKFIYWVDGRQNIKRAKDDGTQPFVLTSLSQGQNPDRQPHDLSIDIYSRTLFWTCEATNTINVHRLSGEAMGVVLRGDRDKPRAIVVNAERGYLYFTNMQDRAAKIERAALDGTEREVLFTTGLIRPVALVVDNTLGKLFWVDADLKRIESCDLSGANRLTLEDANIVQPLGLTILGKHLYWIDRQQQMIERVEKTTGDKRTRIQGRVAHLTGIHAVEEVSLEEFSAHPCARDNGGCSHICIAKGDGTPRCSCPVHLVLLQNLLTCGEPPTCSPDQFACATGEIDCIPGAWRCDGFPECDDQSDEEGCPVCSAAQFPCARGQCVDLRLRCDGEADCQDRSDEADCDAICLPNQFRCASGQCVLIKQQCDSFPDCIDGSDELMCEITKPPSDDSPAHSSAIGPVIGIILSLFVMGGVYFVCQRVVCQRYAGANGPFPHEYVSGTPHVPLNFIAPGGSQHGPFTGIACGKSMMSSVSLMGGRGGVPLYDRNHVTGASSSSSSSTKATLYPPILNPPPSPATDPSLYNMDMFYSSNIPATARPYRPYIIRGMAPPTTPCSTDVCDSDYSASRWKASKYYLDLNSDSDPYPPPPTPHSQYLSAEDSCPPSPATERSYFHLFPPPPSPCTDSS

B1: DKK2: Recombinant Dickkopf 2 protein (mouse; human for human NK cells), also used as conditioned medium (protein)
chain: KLNSIKSSLGGETPAQSANRSAGMNQGLAFGGSKKGKSLGQAYPCSSDKECEVGRYCHSPHQGSSACMLCRRKKKRCHRDGMCCPGTRCNNGICIPVTESILTPHIPALDGTRHRDRNHGHYSNHDLGWQNLGRPHSKMPHIKGHEGDPCLRSSDCIDGFCCARHFWTKICKPVLHQGEVCTKQRKKGSHGLEIFQRCDCAKGLSCKVWKDATYSSKARLHVCQKI
Question: For B1, which “Wnt reporter gene activity” value ([1]; DKK2 5 nM, Wnt3a 2 nM, CHIR 1 μM, 6 hrs (FIG. 10D)) is on record?
Answer: Its value is “inhibited”.

Question: And the Wnt reporter activity ([1]; HEK293, TOPFlash, conditioned medium (FIG. 1E))?
Answer: The Wnt reporter activity was “inhibited Wnt signaling”.

Question: What about the “tumor immune responses elicited by PD-1 blockade” value [2] of the same molecule?
Answer: Its value is “inhibited PD-1 blockade-induced increases in the numbers of tumor-infiltrated CD45+ and CD8+ cells and activation of CD8+ and NK cells”.

Question: What about the “ability of pre-treated NK cells to cause tumor cell apoptosis and death” value [3] of the same molecule?
Answer: The value was “reduced ability to cause tumor cell apoptosis and death”.

Question: And the “granzyme B (Western)” value (primary mouse NK cells; DKK2-treated samples)?
Answer: The value was “reduced granzyme B”.

Question: What about the “perforin (Western)” value (primary mouse NK cells; DKK2-treated samples) of the same molecule?
Answer: The value was “reduced perforin”.

Question: What about the “phosphorylated STAT5, ERK and AKT stimulated by IL-15” value (primary mouse NK cells; DKK2 treatment, Western) of the same molecule?
Answer: Its value is “No notable changes in phosphorylated STAT5, ERK, and AKT”.

Question: What about the “dose dependence of inhibition of NK cell activation” value (primary mouse NK cells; FIG. 4F) of the same molecule?
Answer: The value was “dose-dependent”.

Question: What about the “granzyme B and NK activation markers” value (primary mouse NK cells; IL-15 50 ng/ml 24 hrs, then DKK2 8 nM 24 hours) of the same molecule?
Answer: The value was “significant reductions in granzyme B as well as a number of other NK activation markers, including CD69, IFNY, CD107a, and CD314”.

Question: What about the “activation of LRP5-deficient NK cells” value (primary mouse NK cells; LRP5-/- NK cells) of the same molecule?
Answer: The value was “failed to inhibit”.

Question: And the “activation of primary NK cells lacking LRP6” value (primary mouse NK cells; Lrp6-/- NK cells)?
Answer: The value was “could still inhibit the activation”.

Question: And the “granzyme B expression in human NK cells” value (human NK cells)?
Answer: Its value is “inhibit granzyme B expression in human NK cells”.

Question: What about the “T cell receptor-mediated activation of primary T cells” value [4] of the same molecule?
Answer: The value was “does not inhibit T cell receptor-mediated activation”.

Question: What about the “IL-15-mediated activation of mouse primary CD8+ T cells” value ([4]; IL-15+IL15Rα-Fc 4 days, DKK2 10 nM 24 hours) of the same molecule?
Answer: The value was “directly suppresses mouse primary CD8+”.

Question: What about the “activation of CD8+ intraepithelial cells” value [5] of the same molecule?
Answer: The value was “directly suppresses”.

Question: What about the “co-localization of phospho-STAT5 with EEA1” value ([6]; DKK2-treated NK cells) of the same molecule?
Answer: Its value is “partially co-localized with early endosome marker”.

Question: What about the “localization of phospho-STAT5 in NK cells” value ([6]; IL-15, DKK2-treated primary NK cells) of the same molecule?
Answer: The value was “cytosolic localization of phospho-STAT5 was readily detected”.

Question: And the “phospho-STAT5 nuclear localization in NK cells lacking LRP5” value ([6]; LRP5-/- NK cells)?
Answer: Its value is “failed to cause impairment of phospho-STAT5 nuclear localization”.

Question: What about the “internalization of LRP5” value (LRP5) of the same molecule?
Answer: Its value is “induces internalization of LRP5”.

Question: And the “internalization of LRP6” value (LRP6)?
Answer: Its value is “not LRP6”.
